The record followed here is US20050153923A1, “Targeted drug delivery using EphA2 or EphA4 binding moieties” (priority 2003, published 2005).

In assay [1] the target is T1, EphA2-Fc (Homo sapiens, UniProt P29317).
T1 construct: consisted of the extracellular domain of human EphA2 linked to human immunoglobulin
Kind of assay: Competitive ELISA: inhibition of labeled EA2 binding to EphA2-Fc. To be noted: unlabeled antibody, increasing concentrations; FIG. 1. The method, then: The ability of labeled EA2 monoclonal antibody to bind EphA2-Fc was assayed by competitive ELISA in presence of either unlabeled monoclonal antibodies EA2 or Eph099B-208.261. Ratios of unlabeled to labeled antibody used in the assay are indicated on the x-axis.
Supernatants from bulk culture hybridomas were screened for immunoreactivity against EphA2 (Table 9, column 4) using standard molecular biological techniques (e.g., ELISA immunoassay). Supernatants were further screened for the ability to inhibit an EphA2 monoclonal antibody (EA2; ATCC deposit no. PTA-4380; see co-pending U.S. patent application Ser. No. 10/436,783, entitled “EphA2 Agonistic Monoclonal Antibodies and Methods of Use Thereof” filed May 12, 2003) from binding to EphA2. […] Additionally, many of the other antibodies could inhibit EA2 binding to EphA2 as well (Table 9, column 3).
On the technique in general: An ELISA detects its analyte on a solid surface through an enzyme-linked reagent.

For another assay, the system named is cancer cells. Kind of assay: Elimination of cancer cell colonies already formed in soft agar (antibody added on third day). The assay is classed as cell-based. Particulars: data not shown. The text has this: Assay methods were similar to those described above except that antibodies were not added to the cancer cells until the third day of growth in soft agar.

The next assay deals with MDA-MB-231 tumor cells. The assay can be described thus: Inhibition of colony formation in soft agar. The assay is classed as cell-based. Particulars: single dose 5 μg/ml purified antibody, FIG. 5. How it is done:
A single dose of 5 μg/ml of Eph099B-208.261 (black bar), EA2 (white bar) purified EphA2 antibodies or a negative control antibody, 1A7 (gray bar) were incubated with malignant MDA-MB-231 tumor cells for the indicated time at 37° C. in soft agar. Results are reported as colonies per high-powered field (HPF).
Briefly, cells were suspended in soft agar for 7 days at 37° C. in the presence of purified antibody or control solution (PBS). Antibodies were administered at the time of suspension in both bottom and top agar solutions. Colony formation was scored microscopically using an Olympus CK-3 inverted phase-contrast microscope outfitted with a 40× objective. Clusters containing at least three cells were scored as a positive.

The test system of another assay is A549 lung cancer cells. The assay can be described thus: Tumor growth, A549 cells implanted subcutaneously into athymic mice. The assay is classed as in vivo. To be noted: 6 mg/kg i.p. twice a week for 3 weeks; FIG. 7C. The method, then: Total tumor volume was determined after sacrifice.
Assay [2] concerns the target T1, EphA2-Fc. Kind of assay: BIACORE surface plasmon resonance Koff measurement on immobilized EphA2-Fc. The assay is classed as binding. To be noted: FIG. 15. The text has this:
FIG. 15: Kinetic analysis of EphA2 monoclonal antibodies. BIACORE™ (surface plasmon resonance-based) assays were used to assay the kinetics of EphA2 monoclonal antibody binding to immobilized EphA2-Fc.
The surface plasmon resonance-based BIACORE™ assay was used to measure the Koff rates of the monoclonal antibodies of the invention. IgG present in the hybridoma supernatant was used for measurement. Antibodies with Koff rates of approximately less than 3×10^−3 s^−1 have slow Koff rates. Antibodies with Koff rates of approximately 8×10^−4 s^−1 or less have very slow Koff rates. Antibodies with Koff rates of approximately 9×10^−5 s^−1 or less have ultra slow Koff rates.
EphA2-Fc was immobilize to a surface on a CM5 sensorchip using a standard amine (70 μl of a 1:1 mix of NHS/EDC) coupling chemistry. Briefly, a 400 nM solution of EphA2-Fc in 10 mM NaOAc, pH4, was then injected over the activated surface to a density of 1000-1100 RU's. Unused reactive esters were subsequently “capped” with a 70 μl injection of 1M Et-NH2. Similarly, an activated and “capped” control surface was prepared on the same sensor chip without protein to serve as a reference surface.
A 250 μl injection of each of the EphA2 hybridoma supernatants was made over both the EphA2-Fc and control surfaces, and the binding responses were recorded. These supernatants were used undiluted. […]

In assay [3] the test system is EphA2. The assay can be described thus: EphA2 degradation / protein level in MDA-MB-231 cells (Western blot). To be noted: MDA-MB-231 monolayers; single dose 5 μg/ml, 37° C. The assay is classed as cell-based. The method, then:
Monolayers of MDA-MB-231 cells were incubated in the presence of a single dose of 5 μg/ml (A, C) Eph099B-208.261 or (B, D) EA2 for the indicated time at 37° C. Cell lysates were then resolved by SDS-PAGE and subjected to Western blot analysis with an EphA2-specific antibody (A, B).
(§1) Monolayers of MDA-MB-231 cells were incubated in the presence of a single dose of 5 μg/ml Eph099B-233.152 at 37° C. Cell lysates were then immunoprecipitated with D7 (an EphA2-specific antibody), resolved by SDS-PAGE and subjected to Western blot analysis with (A) a phosphotyrosine-specific antibody or (B) an EphA2-specific antibody.
Monolayers of MDA-MB-231 cells were incubated in the presence of EphA2 agonistic antibodies at 37° C. Cell lysates were then resolved by SDS-PAGE and subjected to Western blot analysis with an EphA2-specific antibody (D7). […] Decreased EphA2 expression is due, in part, to deceased mRNA expression levels in response to EphA2 protein degradation caused by agonistic antibody binding (data not shown).
(§2) Western blot analyses and immunoprecipitations were performed as described previously (Zantek et al., 1999, Cell Growth Diff. 10: 629-38, which is incorporated by reference in its entirety). […] Antibody binding was detected by enhanced chemiluminescence (Pierce, Rockford, Ill.) and autoradiography (Kodak X-OMAT; Rochester, N.Y.).

Assay [4] addresses T2, EphA2-Fc (human, UniProt P29317 24-537).
T2 construct: extracellular domain; also called fusion protein EphA2-Fc; not shown: human IgG1 constant region
Kind of assay: competitive ELISA on EphA2-Fc, competitor labeled EA2.

The subject of assay [5] is EphA2. The assay can be described thus: EphA2 tyrosine phosphorylation in MDA-MB-231 cells (IP/Western blot). The assay is classed as cell-based. Particulars: MDA-MB-231 monolayers; single dose 5 μg/ml, 37° C. The method, then:
Monolayers of MDA-MB-231 cells were incubated in the presence of a single dose of 5 μg/ml (A, C) Eph099B-208.261 or (B, D) EA2 for the indicated time at 37° C. Cell lysates were then immunoprecipitated with an EphA2-specific antibody, resolved by SDS-PAGE and subjected to Western blot analysis with a phosphotyrosine-specific antibody (A, B). The membranes were stripped and re-probed with the EphA2-specific antibody used in the immunoprecipitation as a loading control (C, D).
as §1
EphA2 antibodies promoted tyrosine phosphorylation and degradation of EphA2 in MDA-MB-231 cells. Monolayers of cells were incubated in the presence of EphA2 agonistic antibodies or control at 37° C. […]
as §2
Background: In western blotting, separated proteins are transferred to a membrane and probed.

For assay [6], the system named is MDA-MB-231 breast cancer cells. The assay can be described thus: Tumor growth and survival, MDA-MB-231 cells implanted subcutaneously into athymic mice. To be noted: 6 mg/kg i.p. twice a week for 3 weeks vs PBS or 1A7; FIG. 7B, D.
Procedure: MDA-MB-231 cells were implanted subcutaneously into athymic mice. […] Tumor growth was assessed and expressed as a ratio of the tumor volume divided by initial tumor volume (100 mm^3).
(D) MDA-MB-231 breast cancer cells were implanted subcutaneously into athymic mice. […] Total tumor volume was determined after sacrifice.
Briefly, 5×10^6 MDA-MB-231 breast cancer cells were implanted subcutaneously into athymic mice. […] Tumor growth was assessed and expressed as a ratio of the tumor volume divided by initial tumor volume (100 mm^3).
5×10^6 MDA-MB-231 breast cancer cells were implanted orthotopically or subcutaneously and 5×10^6 A549 lung cancer cells were implanted subcutaneously into athymic mice. […] Tumor growth was assessed and expressed either as a ratio of the tumor volume divided by initial tumor volume (100 mm^3) or as total tumor volume.

“Also recorded” adds a separate entry of the source.

T1 sequence (P29317 24-537 limits assumed): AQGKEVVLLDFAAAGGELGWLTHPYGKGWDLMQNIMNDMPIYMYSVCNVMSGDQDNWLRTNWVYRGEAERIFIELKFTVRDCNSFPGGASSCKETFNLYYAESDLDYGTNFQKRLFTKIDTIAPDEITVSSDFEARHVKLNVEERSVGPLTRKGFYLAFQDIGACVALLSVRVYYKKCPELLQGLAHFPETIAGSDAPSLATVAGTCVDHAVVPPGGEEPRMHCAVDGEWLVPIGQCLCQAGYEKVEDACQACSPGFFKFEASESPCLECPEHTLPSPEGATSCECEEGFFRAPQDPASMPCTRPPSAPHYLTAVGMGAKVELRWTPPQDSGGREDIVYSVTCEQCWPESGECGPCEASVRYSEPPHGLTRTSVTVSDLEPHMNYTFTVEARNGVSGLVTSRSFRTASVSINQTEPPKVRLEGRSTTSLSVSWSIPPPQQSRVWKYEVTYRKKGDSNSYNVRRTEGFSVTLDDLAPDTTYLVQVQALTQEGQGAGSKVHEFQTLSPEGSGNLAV
EphA2, sequence (P29317 24-976): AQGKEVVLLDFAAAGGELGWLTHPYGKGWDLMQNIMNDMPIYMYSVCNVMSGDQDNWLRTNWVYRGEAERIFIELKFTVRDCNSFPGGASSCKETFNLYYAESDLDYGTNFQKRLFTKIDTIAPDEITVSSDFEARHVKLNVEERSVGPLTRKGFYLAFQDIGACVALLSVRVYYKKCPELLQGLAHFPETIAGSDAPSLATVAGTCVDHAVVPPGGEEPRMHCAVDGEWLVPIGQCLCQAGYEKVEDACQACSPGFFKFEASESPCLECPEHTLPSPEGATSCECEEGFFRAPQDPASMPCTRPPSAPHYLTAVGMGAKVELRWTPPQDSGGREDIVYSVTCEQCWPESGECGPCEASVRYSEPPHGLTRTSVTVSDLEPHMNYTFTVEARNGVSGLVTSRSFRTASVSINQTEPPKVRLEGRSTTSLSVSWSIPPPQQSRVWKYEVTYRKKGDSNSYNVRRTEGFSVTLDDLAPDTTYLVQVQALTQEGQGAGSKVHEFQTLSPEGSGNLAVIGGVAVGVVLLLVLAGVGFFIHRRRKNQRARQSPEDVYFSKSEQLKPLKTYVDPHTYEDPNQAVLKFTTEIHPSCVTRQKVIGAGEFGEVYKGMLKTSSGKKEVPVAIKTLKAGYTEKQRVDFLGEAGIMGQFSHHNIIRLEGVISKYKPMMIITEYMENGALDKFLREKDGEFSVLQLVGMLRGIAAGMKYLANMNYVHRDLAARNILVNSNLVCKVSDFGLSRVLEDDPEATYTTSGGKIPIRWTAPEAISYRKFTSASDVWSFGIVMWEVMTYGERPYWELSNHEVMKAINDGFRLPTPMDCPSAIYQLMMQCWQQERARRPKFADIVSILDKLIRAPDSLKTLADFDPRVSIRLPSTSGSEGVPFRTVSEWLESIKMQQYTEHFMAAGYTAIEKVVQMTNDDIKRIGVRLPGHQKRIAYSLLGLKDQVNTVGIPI
T2 sequence (P29317 24-537): as the sequence (P29317 24-537 limits assumed) above

B1: Eph099B-208.261 (antibody, V domains shown)
VH: QVQLQQPGAELVKPGASVKLSCKASGYTFTSYWMHWVKQRPGQGLEWIGMIHPNSGSTNYNEKFKSKATLTVDKSSSTAYMRLSSLTSEDSAVYYCARGGNMVGGGYWGQGTTLTVSS
VL: QIVLTQSPALMSASPGEKVTMTCSASSSVSYMYWYQQKPRSSPKPWIYLTTNLASGVPARFSGSGSGTSYSLTISSMEAEDAATYYCQQWSSNPFTFGSGTKLEIR
notes: Mouse (SJL) hybridoma monoclonal antibody, ATCC PTA-4573
Take B1: the “Competition with labeled EA2 for binding to EphA2-Fc” value with EphA2-Fc [1] is on record as “could decrease the amount of labeled EA2 binding to EphA2-Fc; also recorded: can compete with EA2 for binding to EphA2”. In addition, the “Effect on cancer cell colonies already formed in soft agar” value in the assay on cancer cells is on record as “can kill cancer cells already growing in colonies in soft agar while other antibodies can slow or reduce cancer cell colony growth in soft agar”. Moreover, the “Colony growth / formation in soft agar” value in the assay with MDA-MB-231 tumor cells is “inhibited colony growth in soft agar; also recorded: inhibit malignant tumor cell growth in soft agar”. For the same molecule, the “Tumor growth, A549 implanted subcutaneously” value with A549 lung cancer cells is recorded as “inhibited”. Also, the “Koff rate compared with EA2” value in the assay with EphA2-Fc [2] is “slower Koff rates than EA2”. Also, the “EphA2 protein level (degradation)” value in the assay with EphA2 [3] is “decreased EphA2 protein level; also recorded: promote EphA2 degradation in MDA-MB-231 cells”. In addition, the binding result with EphA2-Fc [4] is given as “binds”. In addition, in the assay with EphA2 [5], the EphA2 tyrosine phosphorylation entry was “increased EphA2 phosphorylation; also recorded: promote EphA2 tyrosine phosphorylation in MDA-MB-231 cells”. Moreover, the “Tumor growth, MDA-MB-231 implanted subcutaneously” value in assay [6] is “inhibited; also recorded: inhibit tumor cell growth in vivo”.
